Assay [1] addresses T1, Recombinant mouse MMR (R&D systems) (mouse, UniProt Q61830 20-1388).
T1 construct: Bought recombinant extracellular portion of mouse MMR with a C-terminal His tag; It was immobilized on the CM5 chip for SPR and coated on plates for PE-ELISA; The SPR methods say only 'MMR'; also called mMMR; recombinant MMR
T1 sequence: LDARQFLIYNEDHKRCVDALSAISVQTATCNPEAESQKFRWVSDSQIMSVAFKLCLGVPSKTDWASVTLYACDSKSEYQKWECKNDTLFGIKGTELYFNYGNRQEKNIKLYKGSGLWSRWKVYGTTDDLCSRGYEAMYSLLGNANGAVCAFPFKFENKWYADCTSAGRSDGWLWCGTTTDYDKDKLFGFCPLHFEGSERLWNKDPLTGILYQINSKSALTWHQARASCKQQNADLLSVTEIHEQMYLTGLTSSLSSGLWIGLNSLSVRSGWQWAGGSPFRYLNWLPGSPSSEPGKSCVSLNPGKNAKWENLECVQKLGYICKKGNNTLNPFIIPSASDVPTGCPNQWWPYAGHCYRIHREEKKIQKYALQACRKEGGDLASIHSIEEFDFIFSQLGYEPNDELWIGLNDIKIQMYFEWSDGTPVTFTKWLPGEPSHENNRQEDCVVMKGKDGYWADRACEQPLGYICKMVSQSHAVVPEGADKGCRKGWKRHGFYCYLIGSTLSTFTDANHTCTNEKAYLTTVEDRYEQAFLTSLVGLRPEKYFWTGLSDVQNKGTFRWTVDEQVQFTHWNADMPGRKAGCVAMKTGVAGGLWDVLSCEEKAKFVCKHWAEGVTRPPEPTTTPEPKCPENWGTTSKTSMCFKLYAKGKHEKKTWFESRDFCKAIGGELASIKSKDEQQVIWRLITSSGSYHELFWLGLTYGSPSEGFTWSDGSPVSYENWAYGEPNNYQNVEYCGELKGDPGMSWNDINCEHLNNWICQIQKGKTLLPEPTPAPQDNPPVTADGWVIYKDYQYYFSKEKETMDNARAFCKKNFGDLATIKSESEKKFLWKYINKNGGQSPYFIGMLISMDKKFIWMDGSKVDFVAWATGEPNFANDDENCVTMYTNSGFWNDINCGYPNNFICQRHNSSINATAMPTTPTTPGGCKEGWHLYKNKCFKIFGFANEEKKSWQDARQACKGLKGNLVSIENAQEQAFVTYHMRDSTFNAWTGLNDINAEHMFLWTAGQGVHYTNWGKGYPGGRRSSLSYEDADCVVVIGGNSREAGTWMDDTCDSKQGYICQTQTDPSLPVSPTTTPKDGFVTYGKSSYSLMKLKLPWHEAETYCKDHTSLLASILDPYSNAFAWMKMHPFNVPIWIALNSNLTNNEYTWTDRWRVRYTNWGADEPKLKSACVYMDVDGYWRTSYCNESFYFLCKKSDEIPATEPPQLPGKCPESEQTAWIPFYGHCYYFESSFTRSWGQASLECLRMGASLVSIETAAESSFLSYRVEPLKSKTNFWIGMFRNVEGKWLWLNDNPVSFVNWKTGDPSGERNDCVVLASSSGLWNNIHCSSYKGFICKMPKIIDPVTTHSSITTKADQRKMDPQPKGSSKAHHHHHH
The assay is described as follows: PE-ELISA, periplasmic extract on coated mouse MMR. For orientation: In an ELISA, binding on a coated surface is turned into a signal by an enzyme label.

For assay [2], the target named is T2, Recombinant human MMR (R&D systems) (human, UniProt P22897 19-1383).
T2 construct: Bought protein (R&D Systems #2534) coated on ELISA plates; also called hMMR; MRC1
T2 sequence: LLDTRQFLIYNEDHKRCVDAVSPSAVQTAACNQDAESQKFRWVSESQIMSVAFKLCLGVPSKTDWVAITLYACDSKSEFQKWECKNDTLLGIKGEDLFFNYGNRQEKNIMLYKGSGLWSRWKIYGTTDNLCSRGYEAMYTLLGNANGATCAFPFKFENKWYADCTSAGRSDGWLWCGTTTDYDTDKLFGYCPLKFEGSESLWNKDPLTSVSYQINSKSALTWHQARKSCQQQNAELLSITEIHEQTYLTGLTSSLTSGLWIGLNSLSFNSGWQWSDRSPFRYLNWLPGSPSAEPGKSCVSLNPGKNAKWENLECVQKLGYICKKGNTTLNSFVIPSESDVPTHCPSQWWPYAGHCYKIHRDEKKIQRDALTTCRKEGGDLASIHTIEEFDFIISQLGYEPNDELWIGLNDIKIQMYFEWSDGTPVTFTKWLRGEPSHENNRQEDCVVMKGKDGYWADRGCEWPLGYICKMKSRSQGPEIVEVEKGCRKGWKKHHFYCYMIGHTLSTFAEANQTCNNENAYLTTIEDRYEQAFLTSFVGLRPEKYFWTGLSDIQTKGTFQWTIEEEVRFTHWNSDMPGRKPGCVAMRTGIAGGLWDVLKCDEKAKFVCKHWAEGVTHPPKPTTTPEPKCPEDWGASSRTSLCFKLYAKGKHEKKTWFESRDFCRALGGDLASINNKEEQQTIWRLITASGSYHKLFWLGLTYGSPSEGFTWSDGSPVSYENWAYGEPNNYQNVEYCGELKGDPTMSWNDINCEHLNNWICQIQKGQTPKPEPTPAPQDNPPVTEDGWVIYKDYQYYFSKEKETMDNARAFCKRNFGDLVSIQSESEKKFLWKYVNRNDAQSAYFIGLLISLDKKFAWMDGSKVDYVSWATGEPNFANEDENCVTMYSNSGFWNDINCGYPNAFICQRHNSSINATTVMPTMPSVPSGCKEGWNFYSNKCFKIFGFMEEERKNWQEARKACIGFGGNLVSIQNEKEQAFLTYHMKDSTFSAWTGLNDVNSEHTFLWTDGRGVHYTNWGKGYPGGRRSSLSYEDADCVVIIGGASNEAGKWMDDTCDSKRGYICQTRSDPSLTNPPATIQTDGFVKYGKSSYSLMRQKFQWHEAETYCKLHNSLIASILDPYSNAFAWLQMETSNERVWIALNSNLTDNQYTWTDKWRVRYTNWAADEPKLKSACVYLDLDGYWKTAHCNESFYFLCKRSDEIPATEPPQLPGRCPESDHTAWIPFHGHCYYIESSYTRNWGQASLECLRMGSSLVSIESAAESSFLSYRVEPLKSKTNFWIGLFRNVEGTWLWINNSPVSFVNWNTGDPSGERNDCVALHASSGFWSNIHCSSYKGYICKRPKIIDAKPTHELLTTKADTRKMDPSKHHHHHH
The assay is described as follows: PE-ELISA, periplasmic extract on coated human MMR.

For assay [3], the target named is T2, Recombinant human MMR (R&D systems). In words: PE-ELISA, periplasmic extract on coated human MMR, OD405 at least 3x over milk-blocking proteins.

B1: NbhmMMRm14.4 (VHH)
VHH: QVQLQESGGGLVQAGDSLRLSCAASGRTFSINYMGWYRQAPGKQRELVAAITSGSGSTNYADSVKGRFTISRDNAKNTMYLQMNSLKPEDTAVYYCNADMDSSLSGGYVDVWGQGTQVTVSS
notes: Tested as a periplasmic extract in PE-ELISA
Regarding B1, the binding result in assay [1] and in assay [2] was “binds” each time.

B2: NbhmMMRm14.93 (VHH)
VHH: QVQLQESGGGLVQAGDSLRLSCAASGRTFSINYMGWYRQAPGKQRELVAAITSGSGSTNYADSVKGRFTISRDNAKKTMYLQMNSLKPEDTAVYYCNADMDSSLSGGYVDVWGQGTQVTVSS
notes: as for B1
With B2, the binding result in assay [1] and in assay [2] was “binds” throughout.

B3: NbhMMRm2.15 (VHH)
VHH: QVQLQESGGGLVQPGESLRLSCKLSGFTLDYYDIGWFRQAPGKEREGVSCISSIGGSANYADSVKGRFTISRDNVKNTVYLQMNSLKPEDTAIYYCAAEAQTPYNDGDCTRASYDYWGQGIQVTVSS
notes: as for B1
Regarding B3, the binding result in assay [3] is listed as “binds”.

B4: NbhmMMRm6.71 (VHH)
VHH: QVQLQESGGGLVQAGGSLRLSCAASGGTFDDSVIGWFRQAPGKEREGVSCISSNDGTTHYASPVKGRFTISSDNAKNTVYLQMNSLKPEDTAVYYCAAETPSIGSPCTSASYDYWGQGTQVTVSS
notes: as for B1
For the molecule B4, the binding result in assay [1] and in assay [2] was “binds” throughout.

B5: NbhMMRm1.33 (VHH)
VHH: QVQLQESGGGLVQPGGSLRLSCAASGFTLDNYTVAWFRQAPGKEREGVSCISSSGGSTNYADSVKGRFTISRDNSKKSVYLQMNSLKPEDTAIYTCAAERAPPYYSGYYFFDSTCVAASYDYWGQGTQVTVSS
notes: as for B1
For the molecule B5, the binding result in assay [3] is recorded as “binds”.

B6: NbhMMRm10.19 (VHH)
VHH: QVQLQESGGGLVQPGGSLKLSCAASGSIFSIKTMGWYRQAPGKQRELVAAITSGGSTNYADSVKGRFTISRDNAKNTVYLQMNSLKPEDTAVYYCNADGVVAWDQPYDNYWGQGTQVTVSS
notes: as for B1
Take B6: the binding result in assay [3] is listed as “binds”.

B7: NbhmMMRm10.79 (VHH)
VHH: QVQLQESGGGLVQPGGSLKLSCAASGSIFSIKTMGWYRQAPGKQRELVAAVSSGGSTNYADSVKGRFTISRDNAKNAVYLQMNSLKPEDTAVYYCNADGVVAWDQPYDNYWGQGTQVTVSS
notes: as for B1
Take B7: the binding result in assay [1] and in assay [2] was “binds” each time.

B8: NbhmMMRm24.31 (VHH)
VHH: QVQLQESGGGLVQPGGSLRLSCTATGFTLKNHHIGWLRQAPGKEREGVASINSSGGSTNYADSVQGRFTISRDNAKNTVFLQMNSLKSEDTAVYYCARLRRYYGLNLDPGSYDYWGQGTQVTVSS
notes: as for B1
On to B8, for which the binding result in assay [1] and in assay [2] was “binds” in each case.

B9: NbhmMMRm17.72 (VHH)
VHH: QVQLQESGGGLVQPGGSLRLSCAASGSIVSINAMGWYRQAPGKQRELVALVTGSGRTNLADSVKGRFTISRDNAKNTVYLQMNSLKPEDTAVYYCNVLVIGPLEGYDYWGQGTQVTVSS
notes: as for B1
Take B9: the binding result in assay [1] and in assay [2] was “binds” in each case.

B10: NbhmMMRm22.84 (VHH)
VHH: QVQLQESGGGLVQPGGSLRLSCAASGRTFSNYVNYAMGWFRQFPGKEREFVASISWSSVTTYYADSVKGRFTISRDNAKNTVYLQMNSLKPEDTAVYYCAAHLAQYSDYAYRDPHQFGAWGQGTQVTVSS
notes: as for B1
Consider B10, for which the binding result in assay [1] and in assay [2] was “binds” each time.

B11: NbhmMMRm19.52 (VHH)
VHH: QVQLQESGGGLVQAGGSLRLSCLASGDTFSNYVMAWFRQAPGKEREIVAAIRLSGARYVPDSVKGRFTISRDNAKNAMYLQMTSLKPEDTARYYCAAGHTWGQYAYWGQGTQVTVSS
notes: as for B1
Take B11: the binding result in assay [1] and in assay [2] was “binds” each time.

B12: NbhmMMRm15.49 (VHH)
VHH: QVQLQESGGGLVQAGGSLRLSCAASGSTFSINNMGWYRQAPGKQRELVAGITGGNTHYADSVKGRFTISRDNAKNTMYLQMNSLKPEDTAVYYCNANWGAYWGQGTQVTVSS
notes: as for B1
B12: the binding result in assay [1] and in assay [2] was “binds” in each case.

B13: NbhmMMRm20.52 (VHH)
VHH: QVQLQESGGGLVQAGGSLRLSCAASGRIFSAYAMGWFRQAPGKEREFVAAISRSGDSTDYADSVKGRFTISRDSAKNMVYLQMNSLKPEDTALYHCAARTVSAPPSAAWGYGYWGQGTQVTVSS
notes: as for B1
With B13, the binding result in assay [1] and in assay [2] was “binds” in each case.

B14: NbhMMRm3.1 (VHH)
VHH: QVQLQESGGGLVQPGGSLRLSCAASGFTLDYYAIGWFRQAPGKEREGISCISYKGGSTTYADSVKGRFTISKDNAKNTAYLQMNNLKPEDTGIYYCAAGFVCYNYDYWGPGTQVTVSS
notes: as for B1
With B14, in assay [3], the binding result is given as “binds”.

B15: NbhmMMRm3.49 (VHH)
VHH: QVQLQESGGGLVQPGGSLRLSCAASGFSLDYYAIGWFRQAPGKEREGISCISYKGGSTTYADSVKGRFTISKDNAKNTAYLQMNSLKPEDTGIYSCAAGFVCYNYDYWGQGTQVTVSS
notes: as for B1
For B15, the binding result in assay [1] and in assay [2] was “binds” throughout.
